Measurements from the supplement of paper PMC10567573.

B1: CDC25A (parent)
chain: KPIVPTDGKRVIVVFHCEFSSERG
B2: PTPRD (parent)
chain: MVHVARLLLLLLTFFLRTDAETPP
B3: KLHDC10 (parent)
chain: CPIIRIPNRFLRGHRPPPARSGHR

Variants of: B1
Test: protein stability index of a GFP-peptide fusion (GPS, HEK-293T) (PSI 1-6); higher = more stable
Conditions: c terminus: a fixed tail appended
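Note: lentivirally expressed fusions sorted by FACS into six bins by GFP to DsRed ratio, PSI derived from sequencing read proportions per bin multiplied by bin number.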

Protein stability index: each site, then its substitutions
K1: R 2.65, E 1.68, C 3.33, V 3.69, A 1.37, H 2.4, S 2.04, Y 1.55, P 2.25, I 2.57, D 2.13, F 1.32, M 1.86, Q 2.15, T 1.98, N 1.62, W 2.24
P2: L 1.83, R 1.99, I 3.46, Y 2.75, H 2.44, D 1.61, Q 2.24, V 1.82, A 3.03, N 3.3, S 1.31, C 3.03, F 2.37
I3: N 2.48, H 1.89, M 2.32, E 2.1, F 2.09, S 1.1, D 1.76, V 2.43, K 2.47, A 3.14, P 2.27, T 2.19, G 1.7, R 2.56

Variants of: B2
Test: as above
Conditions: c terminus: a fixed tail appended

Protein stability index of substitutions, site by site:
L8: D 3.8, C 1.89, T 3.02, Q 2.18, F 2.82, Y 3.46, R 2.45, K 1.98, I 2.58
A20: G 1.84, E 2.48, L 2.99, Q 2.29, D 1.29, H 3.11, I 1.81, F 1.84
L10: W 1.93, D 1.67, A 2.23, F 2.43, T 1.24, K 2.83, Y 1.66, R 2.14, M 2.42, G 1.33, Q 1.57, N 2.71, E 2.79, C 2.04, P 3.02, I 4.4
F14: R 1.98, Y 1.86, N 2.07, Q 2.15, G 1.48, A 1.93, M 3.79, D 1.79, I 2.56, L 1.98, H 1.25, E 1.57, C 1.47, P 2.45, S 1.99, K 1.61
L12: C 3.16, V 1.57, E 2.51, S 2.3, F 3, R 2.03, D 1.57, N 2.12, Q 2.2, P 2.19, K 2.63, Y 3.69, W 2.53, G 2.46, H 1.58, I 2.03
F15: E 2.21, W 2.81, L 2.13, Y 3, P 2.01, H 4.29, V 2.2, M 2.34, N 3.47, D 2.02, I 2.25
R6: K 1.67, S 1.88, D 3.08, V 2.29, L 1.9, Q 3.99, I 1.13, E 3.41, M 1.76, C 2.16, H 3.34, F 1.74, T 2.3
T22: S 4.07, N 2.05, F 1.95, V 3.03, D 2.81, R 3.51, E 2.08, H 2.36, W 5.11
R17: D 2.22, F 2.87, P 1.87, N 3.08, L 2.77, Q 1.92, Y 2.3, V 2.9, E 1.62, T 2.79, I 2.17
P23: F 2.96, N 2.49, V 2.46, A 2.42, S 2.84, E 2.31, Y 3.76, M 2.86, R 3.55, T 1.86, Q 3.52
E21: A 3.13, L 2.79, F 3.22, Q 4.35, K 2.66, M 3.64, Y 2.55, V 2.83, C 2.82
T18: K 3.74, N 2.38, H 2.3, G 2.47, S 2.48, D 2.18, C 1.86, M 2.62, R 3.3, Y 2.88, F 3.28, E 2.04, V 2.63
H3: D 2.1, K 1.78, C 4.98, L 2.27, P 1.49, M 2.86, T 3.21, S 4.08
A5: H 4.03, W 2.51, Y 2.6, Q 2.34, F 3.28, T 2.7, R 1.78, L 3.83, I 1.95, C 2.97
V2: S 2.4, A 2.85, C 2.73, N 1.79, M 2.69, F 4.14, Q 1.88, R 2.51, D 2.92, T 2.06, W 2.96, H 2.53, P 1.93, G 1.83
L9: W 2.29, D 3.06, I 2.95, N 1.58, S 2.29, H 1.53, Y 2.74, F 2.89, K 3.08, A 2.04, M 1.87, Q 1.8, R 1.88, T 3.23
M1: K 2.28, Y 3.9, F 1.96, Q 2.33, I 3.05, H 1.82, L 1.52, E 2.33, T 2.87
L16: Q 1.74, Y 1.52, P 2.65, K 1.72, H 2.35, D 3.53, N 2.12, R 1.72, E 3.34, M 4.18, T 2.68, W 1.81, G 2.65, S 2.22, A 1.49, F 1.37
T13: H 1.77, R 2.04, K 2.03, N 2.05, P 2.14, G 2.01, M 3.59, W 3.29, Q 1.32, I 4.2, S 2.31
L7: I 3.46, P 1.74, N 3.02, G 4.57, T 3.27, H 2.1, S 2.15, C 2.95, R 2.75, Y 2.55, K 3.28, E 1.36
P24: T 3.52, I 2.26, A 3.4, V 2.77, Y 2.67, C 4.5, S 4.91, N 1.73, F 1.99, L 2.27, D 2.73, Q 3.53, M 3.61
L11: S 3.85, M 3.56, W 3.02, P 3.92, H 1.97, K 1.69, I 2.14, E 1.62, F 2.56, V 1.84, N 3.99
D19: L 2.71, A 2.91, F 3.69, V 3.32, N 2.96, S 1.84, C 4.03, I 2.41, Q 2.75, K 2.29
V4: Y 1.52, L 3.81, C 3.07, T 2.52, R 2.34, M 1.46, N 2.68, I 1.41, S 2.46

Variants of: B3
Test: as above
Conditions: c terminus: a fixed tail appended

Protein stability index: each site, then its substitutions
R24: N 1.84, Y 1.7, W 2.99, L 2.61, M 1.93, S 2.03, V 2.54, I 2.99, P 2.33, H 2.01, K 1.29
